Literature values, collected in publication PMC10466379.

Assays:
Test in all cases: not stated (values taken from the PKAD database; the article says PKAD values come mainly from NMR or IR titrations)
Conditions in all cases: not stated (the curated set excludes proteins with ligands, nucleic acids and structural metal ions)
Glu38 = Glu38 (UniProt position 120, TFRLLEVDTPE)
Glu23 = Glu23 (UniProt position 105, IDGDTEKLMYK)
Glu62 = Glu62 (UniProt position 144, EASAFEKKMVE)
Glu25 = Glu25 (UniProt position 107, GDTVKEMYKGQ)
Glu72 = Glu72 (UniProt position 154, ENAKKEEVEFD)
Glu41 = Glu41 (UniProt position 123, LLLVDEPETKH)
Glu37 = Glu37 (UniProt position 119, MTFRLELVDTP)
Glu118 = Glu118 (UniProt position 200, YVYKPENTHEQ)
Glu20 = Glu20 (UniProt position 102, IKAIDEDTVKL)
Glu90 = Glu90 (UniProt position 172, YGRGLEYIYAD)
Glu100 = Glu100 (UniProt position 182, DGKMVEEALVR)
Glu91 = Glu91 (UniProt position 173, GRGLAEIYADG)
Glu132 = Glu132 (UniProt position 214, KSEAQEKKEKL)
Glu34 = Glu34 (UniProt position 116, GQPMTERLLLV)

staphylococcal nuclease variant L38E (parent PDB 2LKV) (Staphylococcus aureus (inferred from PDB 2LKV; not stated in the article); L38E)
pKa (Glu38): 6.8

staphylococcal nuclease variant V23E (parent PDB 2LKV) (Staphylococcus aureus (inferred from PDB 2LKV; not stated in the article); V23E)
pKa (Glu23): 7.1

staphylococcal nuclease variant T62E (parent PDB 2LKV) (Staphylococcus aureus (inferred from PDB 2LKV; not stated in the article); T62E)
pKa (Glu62): 7.7

staphylococcal nuclease variant L25E (parent PDB 2LKV) (Staphylococcus aureus (inferred from PDB 2LKV; not stated in the article); L25E)
pKa (Glu25): 7.5

staphylococcal nuclease variant I72E (parent PDB 2LKV) (Staphylococcus aureus (inferred from PDB 2LKV; not stated in the article); I72E)
pKa (Glu72): 7.3

staphylococcal nuclease variant T41E (parent PDB 2LKV) (Staphylococcus aureus (inferred from PDB 2LKV; not stated in the article); T41E)
pKa (Glu41): 6.8

staphylococcal nuclease variant L37E (parent PDB 2LKV) (Staphylococcus aureus (inferred from PDB 2LKV; not stated in the article); L37E)
pKa (Glu37): 5.2

staphylococcal nuclease variant N118E (parent PDB 2LKV) (Staphylococcus aureus (inferred from PDB 2LKV; not stated in the article); N118E)
pKa (Glu118): 4.5

staphylococcal nuclease variant G20E (parent PDB 2LKV) (Staphylococcus aureus (inferred from PDB 2LKV; not stated in the article); G20E)
pKa (Glu20): 4.5

staphylococcal nuclease variant A90E (parent PDB 2LKV) (Staphylococcus aureus (inferred from PDB 2LKV; not stated in the article); A90E)
pKa (Glu90): 6.4

staphylococcal nuclease variant N100E (parent PDB 2LKV) (Staphylococcus aureus (inferred from PDB 2LKV; not stated in the article); N100E)
pKa (Glu100): 7.6

staphylococcal nuclease variant Y91E (parent PDB 2LKV) (Staphylococcus aureus (inferred from PDB 2LKV; not stated in the article); Y91E)
pKa (Glu91): 7.1

staphylococcal nuclease variant A132E (parent PDB 2LKV) (Staphylococcus aureus (inferred from PDB 2LKV; not stated in the article); A132E)
pKa (Glu132): 7

staphylococcal nuclease variant F34E (parent PDB 2LKV) (Staphylococcus aureus (inferred from PDB 2LKV; not stated in the article); F34E)
pKa (Glu34): 7.3
